The series has as its target YY1 full-length recombinant (Active Motif 31332) (UniProt P25490 1-414). Nature of the series: EMSA; 100-750 ng YY1, 10 mM Mg2+; EMSA: 10 mM Tris pH 7.5, 50 mM KCl, 1 mM DTT, 10 mM MgCl2, 4 C, 30 min (poly d(I-C) with nuclear extract). The note with it: protein: commercial; label: 5' biotin (both strands); blunt. In general terms: In EMSA bound probe runs differently from free probe, usually more slowly.

YY1 full-length recombinant (Active Motif 31332), sequence (P25490 whole entry): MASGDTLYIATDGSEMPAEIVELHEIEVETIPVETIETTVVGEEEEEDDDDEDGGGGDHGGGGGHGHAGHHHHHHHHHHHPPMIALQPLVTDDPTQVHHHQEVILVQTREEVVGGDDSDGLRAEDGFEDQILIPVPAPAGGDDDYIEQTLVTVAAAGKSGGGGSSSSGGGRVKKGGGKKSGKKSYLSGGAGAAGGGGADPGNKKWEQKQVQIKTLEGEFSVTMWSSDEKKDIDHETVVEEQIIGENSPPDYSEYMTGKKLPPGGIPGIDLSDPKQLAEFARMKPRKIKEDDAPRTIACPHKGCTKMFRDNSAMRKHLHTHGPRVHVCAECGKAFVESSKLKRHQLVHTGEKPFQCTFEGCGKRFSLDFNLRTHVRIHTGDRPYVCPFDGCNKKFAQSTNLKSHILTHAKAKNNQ

B1: rs398206 A allele EMSA probe (dsDNA)
DNA 1: GTCCGTCCCAACATGGCGGGT
DNA 2: ACCCGCCATGTTGGGACGGAC
In the case of B1, the binding result is “binds”.

The record behind these values is article doi:10.1101/625400, “Massively parallel reporter assays combined with cell-type specific eQTL informed multiple melanoma loci and identified a pleiotropic function of HIV-1 restriction gene, MX2, in melanoma promotion”.
